Molecular target: T1, DcuR-His6 (Escherichia coli O157:H7 EDL933?) (UniProt P0AD02)
T1 sequence: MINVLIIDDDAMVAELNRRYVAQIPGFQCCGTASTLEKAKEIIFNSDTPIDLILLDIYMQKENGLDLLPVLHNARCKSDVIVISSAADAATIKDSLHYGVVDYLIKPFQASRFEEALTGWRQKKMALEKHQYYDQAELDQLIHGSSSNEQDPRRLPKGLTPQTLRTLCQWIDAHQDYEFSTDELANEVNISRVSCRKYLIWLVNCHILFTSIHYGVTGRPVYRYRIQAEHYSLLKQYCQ
Test: EMSA

## AGATTCATCTGCAGGCTCTGAAGTAAGTATACGTGTGAATATTATTGCTTGAAAAAGCGTATTGGATAATATATACAGTATATGTACTTTATGTACATTGCAACTATTTAAATAATATAATAGTTGCCTATGGGATAATTTGGTTATTTATAACCAGGTAAATGTCTAAATTAGACAAAAGGAGAAAGATCAATGGAAGCAGCAAATTTAAGTCCTTCTGGTGCAGTAATG (double strand) [PLEE2/3]
  binding: no binding

## CATTAGCCATTGGAAACTCACGTAATCATTAATTATGAATATTCCATTAAATAGTACTGTACAACAGCTTCCTTTCTACTCTATTCTTAGACGATGTAAGTTCACCATATTTTTTCTCATTGTTCAACCACCAGGATGAATAAAATTTAAAAATGTTATCCTCATATAAAATAAAACTTCTCAATGGTGCGATGCG (double strand) [PLEE4]
  binding: no binding

Source: paper PMC10636207
